Measured values: the Human Domainome abundance scans (Beltran et al. 2025)
± gives the uncertainty stated by the source.

Assay: abundance fitness (aPCA) (normalised: wild type 0, dead -1); higher = more abundant; growth selection in yeast, the domain comes from the species named
Conditions: Homo sapiens

Substance	abundance fitness
BAG family molecular chaperone regulator 3 P55Q, O95817	0.081 ± 0.19
SAFB-like transcription modulator D62I, Q9NWH9	-0.339 ± 0.049
SAFB-like transcription modulator E57M, Q9NWH9	-0.164 ± 0.094
BAG family molecular chaperone regulator 3 G25Q, O95817	-1.03 ± 0.27
SAFB-like transcription modulator I56H, Q9NWH9	-0.797 ± 0.19
BAG family molecular chaperone regulator 3 N50D, O95817	-0.126 ± 0.2
BAG family molecular chaperone regulator 3 R45G, O95817	-0.087 ± 0.085
SAFB-like transcription modulator G61K, Q9NWH9	-0.18 ± 0.06
BAG family molecular chaperone regulator 3 D41W, O95817	-1.16 ± 0.44
BAG family molecular chaperone regulator 3 P21S, O95817	0.349 ± 0.089
BAG family molecular chaperone regulator 3 R19E, O95817	0.208 ± 0.15
BAG family molecular chaperone regulator 3 W26Q, O95817	-0.641 ± 0.33
SAFB-like transcription modulator K20E, Q9NWH9	-0.354 ± 0.13
BAG family molecular chaperone regulator 3 L22N, O95817	-0.67 ± 0.34
SAFB-like transcription modulator K53Y, Q9NWH9	-0.517 ± 0.18
SAFB-like transcription modulator K35L, Q9NWH9	-0.44 ± 0.11
SAFB-like transcription modulator I49D, Q9NWH9	-0.154 ± 0.11
SAFB-like transcription modulator L34P, Q9NWH9	-0.8 ± 0.084
BAG family molecular chaperone regulator 3 G58E, O95817	-0.045 ± 0.18
BAG family molecular chaperone regulator 3 S14E, O95817	0.233 ± 0.085
SAFB-like transcription modulator E58C, Q9NWH9	-0.113 ± 0.064
SAFB-like transcription modulator L39A, Q9NWH9	-0.498 ± 0.069
SAFB-like transcription modulator K53V, Q9NWH9	-0.184 ± 0.051
BAG family molecular chaperone regulator 3 P23M, O95817	-0.772 ± 0.34
SAFB-like transcription modulator K20W, Q9NWH9	-0.284 ± 0.095

Substance	abundance fitness
SAFB-like transcription modulator I41Q, Q9NWH9	-0.022 ± 0.082
BAG family molecular chaperone regulator 3 P23E, O95817	-0.544 ± 0.14
BAG family molecular chaperone regulator 3 D41P, O95817	-0.65 ± 0.16
SAFB-like transcription modulator S32F, Q9NWH9	-0.125 ± 0.036
SAFB-like transcription modulator G60D, Q9NWH9	-0.171 ± 0.062
BAG family molecular chaperone regulator 3 T34C, O95817	-0.073 ± 0.13
BAG family molecular chaperone regulator 3 I28Q, O95817	-0.307 ± 0.22
SAFB-like transcription modulator I66Y, Q9NWH9	0.007 ± 0.16
BAG family molecular chaperone regulator 3 F38Q, O95817	0.571 ± 0.22
SAFB-like transcription modulator E57S, Q9NWH9	-0.031 ± 0.056
BAG family molecular chaperone regulator 3 S56R, O95817	0.007 ± 0.063
BAG family molecular chaperone regulator 3 I30S, O95817	-0.191 ± 0.077
BAG family molecular chaperone regulator 3 E57G, O95817	-0.237 ± 0.12
SAFB-like transcription modulator I22E, Q9NWH9	-0.57 ± 0.11
BAG family molecular chaperone regulator 3 D31C, O95817	-0.334 ± 0.074
BAG family molecular chaperone regulator 3 A13S, O95817	-0.321 ± 0.2
SAFB-like transcription modulator S50V, Q9NWH9	-0.38 ± 0.072
BAG family molecular chaperone regulator 3 E57M, O95817	-0.186 ± 0.24
SAFB-like transcription modulator K31S, Q9NWH9	-0.613 ± 0.061
BAG family molecular chaperone regulator 3 E57P, O95817	-0.027 ± 0.16
SAFB-like transcription modulator L48S, Q9NWH9	-0.585 ± 0.039
SAFB-like transcription modulator E58G, Q9NWH9	-0.021 ± 0.051
BAG family molecular chaperone regulator 3 D18Y, O95817	-0.641 ± 0.35
BAG family molecular chaperone regulator 3 F38T, O95817	-0.622 ± 0.29
SAFB-like transcription modulator K53M, Q9NWH9	-0.407 ± 0.12

Substance	abundance fitness
BAG family molecular chaperone regulator 3 S44M, O95817	-0.371 ± 0.15
SAFB-like transcription modulator N38E, Q9NWH9	-0.153 ± 0.034
SAFB-like transcription modulator K20V, Q9NWH9	-0.252 ± 0.072
BAG family molecular chaperone regulator 3 K29F, O95817	-0.719 ± 0.45
BAG family molecular chaperone regulator 3 I28L, O95817	-0.444 ± 0.17
BAG family molecular chaperone regulator 3 P21M, O95817	0.673 ± 0.18
SAFB-like transcription modulator K53D, Q9NWH9	-0.931 ± 0.3
BAG family molecular chaperone regulator 3 P21F, O95817	0.097 ± 0.21
BAG family molecular chaperone regulator 3 P24S, O95817	0.456 ± 0.099
SAFB-like transcription modulator L25T, Q9NWH9	-0.536 ± 0.063
BAG family molecular chaperone regulator 3 E27M, O95817	-0.714 ± 0.19
SAFB-like transcription modulator I66N, Q9NWH9	-0.432 ± 0.18
SAFB-like transcription modulator I41R, Q9NWH9	-0.202 ± 0.066
SAFB-like transcription modulator Q54R, Q9NWH9	-0.106 ± 0.045
SAFB-like transcription modulator L48I, Q9NWH9	-0.513 ± 0.063
SAFB-like transcription modulator S50G, Q9NWH9	0.028 ± 0.039
SAFB-like transcription modulator L68H, Q9NWH9	0.053 ± 0.29
SAFB-like transcription modulator G61N, Q9NWH9	-0.208 ± 0.083
SAFB-like transcription modulator Q54G, Q9NWH9	-0.258 ± 0.069
BAG family molecular chaperone regulator 3 N43H, O95817	-0.384 ± 0.38
BAG family molecular chaperone regulator 3 W26T, O95817	-0.335 ± 0.074
BAG family molecular chaperone regulator 3 G17D, O95817	0.825 ± 0.07
SAFB-like transcription modulator E57W, Q9NWH9	-0.124 ± 0.059
BAG family molecular chaperone regulator 3 L22A, O95817	-0.362 ± 0.17
SAFB-like transcription modulator L39M, Q9NWH9	0.017 ± 0.047

Substance	abundance fitness
SAFB-like transcription modulator I28P, Q9NWH9	0.193 ± 0.13
BAG family molecular chaperone regulator 3 S14W, O95817	-0.576 ± 0.23
BAG family molecular chaperone regulator 3 T34H, O95817	-0.495 ± 0.48
SAFB-like transcription modulator Q54K, Q9NWH9	0.057 ± 0.1
BAG family molecular chaperone regulator 3 V12F, O95817	0.051 ± 0.19
BAG family molecular chaperone regulator 3 N16M, O95817	0.276 ± 0.065
BAG family molecular chaperone regulator 3 I28E, O95817	0.316 ± 0.11
SAFB-like transcription modulator V47N, Q9NWH9	-0.079 ± 0.045
BAG family molecular chaperone regulator 3 V12N, O95817	0.139 ± 0.15
BAG family molecular chaperone regulator 3 D51F, O95817	-0.234 ± 0.48
SAFB-like transcription modulator K45A, Q9NWH9	-0.224 ± 0.068
SAFB-like transcription modulator T42M, Q9NWH9	-0.104 ± 0.09
SAFB-like transcription modulator D64T, Q9NWH9	-0.076 ± 0.04
BAG family molecular chaperone regulator 3 W36G, O95817	0.48 ± 0.35
SAFB-like transcription modulator E67G, Q9NWH9	-0.198 ± 0.049
BAG family molecular chaperone regulator 3 D41A, O95817	-0.82 ± 0.23
SAFB-like transcription modulator D62L, Q9NWH9	-0.46 ± 0.047
SAFB-like transcription modulator R26M, Q9NWH9	-0.098 ± 0.092
SAFB-like transcription modulator R26W, Q9NWH9	-0.627 ± 0.1
SAFB-like transcription modulator G19R, Q9NWH9	-0.757 ± 0.2
SAFB-like transcription modulator G43D, Q9NWH9	-0.712 ± 0.2
BAG family molecular chaperone regulator 3 P32N, O95817	0.039 ± 0.29
